Data taken from patent publication US20250170067A1 (published 2025).

Tests used:
VEGF = VEGF (UniProt P15692); test: co-incubation of VEGF with particles, particulate removed, free VEGF in supernatant measured by ELISA
[1] = molecular target: AB160 (nanoparticle of albumin-bound paclitaxel and bevacizumab, ratio about 10:4, average size 160 nm) (UniProt P02768); test: flow cytometry of particles stained with goat anti-mouse IgG and PE
[2] = molecular target: T1, ABRAXANE® / albumin-bound paclitaxel (UniProt P02768 25-609, paclitaxel non-covalently bound); test: as above
T1 construct: Nanoparticle of many albumin molecules with paclitaxel, not a single polypeptide; also called ABX; Paclitaxel Albumin-stabilized Nanoparticle Formulation

[3] = molecular target: T1, ABRAXANE® / albumin-bound paclitaxel; test: co-incubation of VEGF with particles, particulate removed, free VEGF in supernatant measured by ELISA
Description: AB160 was prepared as described and 2000 μg/ml VEGF was added to the AB160 complex or ABX alone. The VEGF was incubated with the nanoparticles for 2 hours at room temperature. The suspension was spun at 6000 rpm for 15 minutes, supernatants were collected and free VEGF was measured by ELISA. Briefly, ELISA plates were coated with capture antibody overnight at 4° C. Plates were washed, blocked and standards and samples were added. After washing, detection antibody was added and plates were developed with substrate (R and D Systems, Minneapolis, MN). Absorbance was measured at 450 nm using a Versamax ELISA plate reader (Molecular Devices, Sunnyvale, CA). The concentration of unbound VEGF was determined with a standard curve from 0 to 2000 μg/ml.

Q: For “AB160 (nanoparticle of albumin-bound paclitaxel and bevacizumab, ratio about 10:4, average size 160 nm) (from UniProt P02768 25-609)”, which % VEGF unbound (VEGF) is on record?
A: < 10%

Q: With goat anti-mouse IgG (antibody) as the molecule, how does the % positive [1] read?
A: 41.2%

Q: What about the % positive [2] of the same molecule?
A: 6.7%

B1: VEGF (ligand, UniProt P15692-4 27-191, looked up)
chain: APMAEGGGQNHHEVVKFMDVYQRSYCHPIETLVDIFQEYPDEIEYIFKPSCVPLMRCGGCCNDEGLECVPTEESNITMQIMRIKPHQGQHIGEMSFLQHNKCECRPKKDRARQENPCGPCSERRKHLFVQDPQTCKCSCKNTDSRCKARQLELNERTCRCDKPRR
Q: Does B1 bind [3]?
A: no binding (tested: 2000 µg/ml VEGF)
